assay: yeast display, Sf9 membrane polyspecificity reagent, FACS + sequencing; frameworks hold sequencing errors
Procedure, shortened: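 Synthetic nanobody libraries on Saccharomyces cerevisiae BJ5465 were galactose-induced for 36–48 hours, stained 1 hour at 4 °C with 10% biotinylated, detergent-solubilized Sf9 membrane reagent and enriched on streptavidin microbeads. FACS then separated cells into low and high (top ~1%) gates by anti-HA (expression) and streptavidin (reagent binding) fluorescence. Genes were colony-PCR amplified, MiSeq 2 × 250 sequenced and CDR-length filtered. A clone's polyreactivity label is that of its gate of origin.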

Sequence | polyreactivity (PSR sort gate)
QVQLVESGGGLVQAGGSLRLSCAASGIIFIFYDMGWYRQAPGTERELVAAITNGVDSTYYADSVKGRFTISRDNAKNTVYLQMNSLKPEDTAVYYCNADTVVEWYSPSREYDYWGQGTQVTVSS | low polyreactivity
QVQLVESAGALVQAGGSLRLSCAASGSTYWRYTMGWYRQAPGKERELVAAISTRGGSTTYADSVKGRFTISRDNAKNTVYLQMNSLKPEDTAVYYCAAGRQYRFDFWGQGTQVTVSS | high polyreactivity
QVQLVESGGGLVQAGGILRLSCAASGLTFRDYAMGWYRQAPGKERELVAAISWNGSSTNYADSVKGRFTISRDNAKNTVYLQMNSLKPEDTSVYYCNAYYYYRRPLEGGYWGQGTQVTVSS | low polyreactivity
QVQLVESGGGLVQAGGSLRLSCAASGYTSYVYAMGWYRQAPGKERELVAAISLRTASTYYADSVKGRFTISRDNAKNTVYLQMNSLKPEDTAVYYCARGRETYRYCYRLNYWGQGTQVTVSS | high polyreactivity
QVQLVESGGGLVQAGGSLRLSCAASGRIFDTYAMGWYRQAPGKERELVAAITRRGGSTYYADSVKGRFTISRDNAKNTVYLQMNSLKPEDTAVYYCAKSLVNRHYDYWGQGTQVTVSS | low polyreactivity
QVQLVESGGGLVQAGGSLRLSCAASGITFNRYAMGWYRQAPGKERELVARISLRGGNTYYADSVKGRFTISRDNAKNTVYLQMNSLKPEDTAVYYCNAPYYSRRGNSWGQGTQVTVSS | high polyreactivity
QVKLVESGGVLVQAGGSLRLSCAASGSIFVYNAMGWYRQAPGKERELVAAISQRGGSTYYADSVKGRFTISRDNAKNSVYLQMNSLKPEDTAVYYCAAGPGDSGDDYWGQGSQVTVSS | low polyreactivity
QVQLVESGGGLVQAGGSLRLSCAASGITFVYNAMGWYRQAPGKERELVAAIDFGAGSTYYADSVKGRFTISRDNAKNTVYLPMNSLKPEDTAVYYCAAGAARWYWPYDYWGQGTQVTVSS | low polyreactivity
QVQLEESGGGLVQAGGSLRLSCAASGFIFTPYAMGWYRQAPGKERELVAAISRSGGSTYYADSVKGRFTISRDNAKNTVYLQMNSLKPEDTAVYYCAADVYRTAYYYGSYYWGQGTQVTVSS | high polyreactivity
QVQLVESGGGLDQAGGSLRLSCAASGSIYYTAMGWYRQAPGKERELVASISTGDSTDYADSVKGRFTISRDNAKNTVYLQMNSLKPEDTAVYYCAADTRLGYWDDYWGQGTQVTVSS | low polyreactivity
QVQLVESVGGLVQAGGSLRLSCAASGSTFQGNAMGWYIQAPGKERELVAAISRSGGSTYADSVKGRFTISRDNAKNTVYLQMNSLKPEDTAVYYCAAYSGVGYLWFDYWGLGTQVTVSS | low polyreactivity
QVQLVESGGGLDQAGGSLRLSCAASGRTLSRYAMGWYRQAPGKERELVASMSWSGGRTYYADSVKGRFTISRDNAKNTVYLEMNSLKPEDTAVYYCAAVYVTAPFDYWGQGTQVTVSS | low polyreactivity
QVHLVESGGGLVQAGGSLRLSCAASGSIFSSYAMGWYRQATGKERELVASISSGGSTNYADSVKGRFTISRDNAKNTVYLQMNSLKPEDTAVYYCNVDLYNWRGDSTGYDYWGQGTQVTVSS | low polyreactivity
QVQLVESGGGLVQAGGSLRLSCAASGSIFAFYAMGWYRQAPGKERELVAAITASGGRTYYADSVKGRFTISRDNAKNTVYLQMNSLKPEDTAVYYCAAVGGATYSWNGTFLYDYDYWGQGTQVTVSS | low polyreactivity
QVQLVESGGGLVQAGGSLRLSCAASGFIFVRNAMGWYRQAPGKERELVAAITGRGGRTYYADSVKGRFTISRDNAKNTVYLQMNSLKPEVTAVYYCAIDSPDDHFGYWGQGTQVTVSS | high polyreactivity
QVQLVESGGGLVQAGGSLRLSCAASGRIFKGYAMGWYRQAPGKERELVAAITISGGSTYYADSVKGRFTISRDNAKNTVYLQMNSLKPEDTAVYYCAARKFVYWYGMEYWGQGSQVTVSS | low polyreactivity
QVQLVESGGGLVQAGGSLRLSCAASGSTIRGYAMGWYRQAPGKEREFVAAITVNGGNTYYADSVKGRFTISRDNAKNTVYLQMNSLKPEDTAVYYCNVPVTVGKDSITEHYYWGLGTQVTVSS | low polyreactivity
QGQLVESGGGLVQAGGSLRLSCAASGGTFLWNAMGWYRQAPGKERELVAAIRWSGARTYYADSVKGRFTISRDNAKNTVYLQMNSLKPEDTAVYYCASENYWYWPYNGMYYWGQGTQVTVSS | high polyreactivity
QVQLVESGGGLVQTGGSLRLSCAASGSIYGEYAMGWYRQSPGKEREFVADITWSDGSTYYADSVKGRFTISRDNAKNTVYLQMNSLKPEDTAVYYCAADSVLDRQVLYLWPWYLGDYWGQGTQVTVSS | low polyreactivity
QVQLEESAGGLVQAGGSLRLSCAASGRIFKAYAMGWYRQAPGKERELVASISRDGSTSYADSVKGRFTISRDNEKNTVYLQMNSLKPEDTAVFYCAGPSYRTRYYFWGQGTQVNVSS | high polyreactivity
QVQLVESRGGLVQAGGSLRLSCAASGFTFVYYTMGWYRQAPGKERELVAAINWSGGSTYYADSVKGRFTISRDNAKNTVYLQMNSLKPEDTAVYYCAADTSYYPYEYWGQGTQVTVSS | high polyreactivity

From the nanobody polyreactivity screen of Harvey et al. (2022)
